Laboratory results published in the NTF2 design screens of Basanta et al. (2020).

Test: protease stability score; higher = more stable; yeast display proteolysis, trypsin and chymotrypsin;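 also: log10 excess protease needed over predicted unfolded state with 0 meaning unfolded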

Row | Sequence | protease stability score
1 | DDDAARQFEEVMKAVEHGDPHQVEELVDPNATFNVGDKRWHGMRENMQEHISRFQSINMTVEIKRVEDTNGRAKFEASVTRNDNGKPDTFTVEIVVRVHNGEIKEVQLNNTK | 0.158
2 | DDDADRRARKLDQARKEGDPDKMRKNMDPNVRMQIGDQEWSGRETIANKLATDLKRMDIEITIKRYTWHNGTADIDADETFNVDGRPNSDKVRMEVHFHNGRVEHQILRVPEEFKHRLHK | -0.115
3 | DDDAIKRFHEQVDNEQHNNEEEQEKNVDPNATVNVGDKTYHGREKWREVVKRENEEMRVKYQHVTFRRHPGRVIVRFRIVNDHNGKPTETDVNANYQMHNGRIRQVNRRTDG | 0.162
4 | DDDALRRAKEMDDQIKNGNEHEYQKMVDPNAREHIGDTTYSGRENLVKLVRDRRRHMREKVDITEMESSGDKLRIVYRAEQEHNGQPRKKRRRKVIRLSNGRVQEVKVVDDQ | 0.4
5 | DDDALRRLEELWSALEEGDESRVNRNIDPNARLKIGDTTIHGREKLAESLVRDWKEIKLEIEFKTLEAHNGQARLEAIEHFRINGRPEQINFRMQMHQRNGNVDEIVIEMDPDQQRKKES | -0.133
6 | DDDAMRKAHEFYTAYNTNDEDTLSKQFDPNARIRYGDEVIHGREQLKKWMEEIQREMSVSVRVKSMKVRGDEIHIKFDMTVDINGNPLEFDAQAEFRFRNGKFIDFTLQIPEEAQKQEHG | 0.704
7 | DDDAQNTLSDRINLIKQGNKEEVDKQADPNATVQVGDKKVQGREEIRRWIKHVKDQLNVQIEIKHVEAQGNKVRIDASFRARINGKPVRIRFILIADMHNGRFKRVVMHLDEDQQRKYEK | 0.943
8 | DDDAQRIAEDIQNALRKGDPERLNHLVDKNVKFVIGDKTIHGREDAAKQWHTMNRQMRIEVEMKHWDQQGNEVTIVARFVYEHNGRPETKRITRTITFHNGRAKEVVQKDDS | 0.09
9 | DDDAQRRLEDQLKQIEEGNPEQIRNQVDPNATLRYGDKTIQGREEIVKWWKRIRDESRIQFHLKSMEVSGDQVRVVFNLVVKHNGKPSHSQVVVTLRFHNGKVTEVSMQHTS | 1.71
10 | DDDAQRRVKTYFNLLLTGNPENLKNQVDEDVRVEIGDKEIRGSDQVAHHARQLHTEMRIHARIDDMKVQGDHIRVEVRLYFERNGQPRTKNLRASVRWHNGKMKEFVVKNDD | 0.682
11 | DDDAQRVLNEFWRHWRRGNEEELKKLVDPNAQFEVGNKTFHGREHYANYLRRVSEEMTFDINIKDMSVEGDQVVIDATIMVQVNGNPISIKVIWRANATNGKIKYLSLQIDEDMVRQQQS | 0.445
12 | DDDARDLMKEVLTAQKNNDPKHVRKLFDPNANIKYGDREVTGMDHAAKTLVDHIQQIRLQIDSVTLEVQGDTIIVHAQMVNDRNGNPDSTRFVLEAKVDGDKFKSQDKQEDS | -0.524
13 | DDDARERVDELLEVEQTGNREDIKRLVDPNAKVQVGDDEYHGMEVYAETVVKKRKEINIELRFKDMQVHNGRANADVEAVYDHNGRPSRMRFVLHFVIRNGKFKEIRLREDR | 1.2
14 | DDDARRVINDALEAMNSNNESQLAHLFDPNATFEVGDREIHGRDDFREWVRQMQEEMRFSVSVRDVQERPNHVKFDVEYEEEKNGNPDKHRAVLKARARNGKITELKLDNHK | 0.075
15 | DDDASRRFHEFVKLVRTNNPHKAMEMVDPNARFHIGDKEIHGREDVRRWVSRMLREARVTIDLKSLDVQGEKVKVTNLVRRRHNGEPQQMSVHAQVVWHNGKIKQETAHFKG | 0.127
16 | DDDATKVVKEFLSALKTNNPDRARELIDKDVRVRVGDKEIHGREQLITHIETDLKKIRIEIKHMHIDVTGEDIIIHQVFVDEHNGRPHTQTVVVFIEMNNGRVKNVRSETSS | 0.322
17 | DDDAVRKARELQKAYDHGDEQKVRDLADPNARVRVGDKKLHGMEDIAHTLAERDKQIDNTVRVDRITAHNGRVDANLRMRNNNNGRPNNFELDLKVVVDNGNIVDVDRQNNR | -0.207
18 | DDDAVRKLRELIKAVKDGDPSRAKELMDPNAEIVVGDHYIRGMDNFDKEIDRQKKEARVEYRLKRVRHDENHIKVDAEVIFNVNGRPVTFKLKMRVKLHNGKMIEVEQQVDESSIERVKS | 1.01
19 | DDDAVRLFKEELKAEKNNNPDKIRELADPNARFKVGDKTVHGRESWARTVETRAREIRNDIDVKSYDNDNGRADIKMTVHQEENGRPQHNEASANITADNGRLKEVQIHSRP | -0.356
20 | DDDAVRQAQENLKAIEDGDEDKVRNLMDPNAQVNIGDKTIHGMEEFMRQMKRKLDEIRVDYEDIKIDKQGDKARLDATWRQDDNGEPHSMKVDVDVKFRNGKIVDWQQQYDG | -0.149
21 | DDDAVRQVHTFWRILERGNSDRATEMLDENARVEVGDRSLHGREKIVTQQYRLYTQARIEVERYSAQDHGNKVHAFVLVVVHVNGTPHRFTVDVNFVFQNGRFKSIHLQVSEEQLRQEER | 0.604
22 | DDDAVRRMKEFEEAKQHGDPDELRRLADPNVRLEYGDKEIHGRDTMAQTLKNEVDEIRMEVDFRHFTSQGDKVSIQAEQSRDNNGQPQSVKAQFDARFHNGRLKHLRVQLDG | 0.114
23 | DDDDLKRITEFLKNEQKGNSEELRKLADPNATFQIGDKTIKGRDKFANEAKKRRDEMHFQYKSVHMRDHNGVAVFSVTWILDHNGKPEENTFTLQAKLTNGKIKMLRLQSRK | -0.012
24 | DDDDMKLAEEFAQAISTGDHNRVEENADKDARFDIGDKVVNGNHQRATEVKKEQDDQKVSVDINSMDATGNKVVAEINVDINNNGHPETQEHILHFTQDNGKIRHMEVKDDQ | -0.685
25 | DDDDNKTAQDRMRTNDFTTLARHAPEDAHAQIGDTTVTGRRKLEEIVVKFREQVDHMEIKDIRTSGEKVFIDLHATFDGHTVRLVIEVEVKNGRLQKLFFRVTDPERAKEIVEQLD | 0.362

Row | Sequence | protease stability score
26 | DDDDQLRSMIKSYNDNFQRGDFVRLLKMAPPDVKIRIGEDEISGREKANEFATRLEEEVDQVEAEIKSVTAHNGKASADILVEVNHNGETKHFTIEVHFDLQNGEVHLTEVVYK | 0.79
27 | DDDEARHRAEEIVRQMQSNNWKDIDKLMDKNVQIRVGDKRYTGRTRARKFIKTIADRVDHAHVVNVTVQGNKARFEFIARFDGEHVRMQMVFELHNGHAKKVEVDPEELKQLKK | 1.04
28 | DDDEARKALQWFSTGDPDKLKKNVDENAKVQIGDKEYQGRDQAATALVKLQKRVDHVEIKHVSIDGDDVVVDLVLNVDGHEVRFTNEFRVENGKFQDVHINVTNEEDEKILKRVLG | 0.932
29 | DDDEIEKIARQLVKALQKGDFKHFVELMDKDVRLEYGDKEVHGREQAKQAMKELAERVDHVQLDDYKVHNGTAEIRLKLNFNGKSADVVFDMRIEDGRVKKIVIRYRSEEHRKHIDT | 1.24
30 | DDDEIRRLAKRVVKALHDGDPDEMMRLADENAKIDVGDHRIRGREQLRDFVKQLTEDVDHIRIHDYRVTPNHARVVVVVDHNGQKSTFVVEAHMDNGTIKSMRFHER | 0.462
31 | DDDEMHKLVEHAIKAWETGDHKKAMDLIDPNAKVDVGDREIHGREEFSHHVREINKKVDRVDVQDYKVRGNKAQVRMQFNVNGQTVVVNLVFVMSNGRLSRVQIDVTDPDKFRSAQS | 0.138
32 | DDDEMRELIKSIEEVLTDGDPDEFLKQIDPNAKAQYGDTRVSGSEEIRKMAEKFSDRVDHVDVRDIKVSGDTATFDMQIDHNGRNDTVIMIVEAHNGKVKHVQYHKG | 0.142
33 | DDDEMRKLLTRLADNYKHNDPNKLAEQMDPDVEIEIGDKTYHGRENVMKHWKEQHERVDHVNIQHLDAQGENLVMTFNVTVNGKHVTVRIIFNVKNGRIKSVIVDPDDIKKLEG | 1.48
34 | DDDENKNVLKRVVDILRTGDDKKMQKLADPNARLIVGDKTYHGREDMMHWVKELKQDVDHMKVEQIEVRGERARAILVAEVNGQQRRYLLIITVHNGRLKQMEVRSQ | 1.91
35 | DDDEVRKAMRAVTNFFKGNPDQVMELIDPNAHIQVGDKSVTGREQARHLVKDVKEEQQFDVQSVDARDHGSKIVINVRFEVRHNGQPREKFMVLEMSVHNGKIQEMRVRTDS | 0.946
36 | DDDEVRKIREFMHVMSRGDSNRAMEMADPNAHFKVGDKTINGRESFKSWLRKQREEIHVQIDDVTNTSEPGHVEVNADVTFEHNGQPDRVTLIMIARLKNGRITFLEIRRKK | 1.33
37 | DDDEVRKLVHNLERGNFDDFVRQADPNAKVTIGNKTYHGREDIKSAYKKLKDQVDHLEVKRVRHHNGRLNVERIVVVNGRNIRYHVRLTIHNGRIKHIRYQATNEEQQKWMDEVIK | 0.559
38 | DDDHARRLAERFIKAFQKGDEERAKDLAPPDVKVHVGDTQYNGREQMKQAVKDFRERVDHLSVETIKVRNGRVEVHATANINGVEVNVVFTFVFRNGKMKSMDLKYRDEEAHRNWTS | 1.19
39 | DDDHATEIAKRMIDNFTTGNEENVKRLVDPNATVRIGDKRFHGRDHIRDAIRQIKERIDHIQVRTFTAHNGRIRITAEVKINGQSKEIHIELRIHNGHVVFFQLNVRNEEEWKTALS | 1.05
40 | DDDHLRKVEDFMRAQLEGDPDRLKQLADPNVRMNVGEKKVHGMQDIATEQASTYKTARYEIKSLDSKTEGDKVVITMRVQADNNGQPHDETFHLKARLENGKIVEQSKENDG | -0.529
41 | DDDKAKEIARQVWHAIREGDEDEAKRQFDKNARVVYGDKTVHGKEQAARMVHEWRRRIDHLEINDMKVDGNSVHVVFRYVHNGRERTQVVRIELDNGRVKNAEFTDQ | 1.46
42 | DDDKDRKIAEEITKLLKHGNPDELARQADPNVRLEVGDHVYHGRHQMVEWVKHFWERADHLRIKDVTTRPGHVDLVATLRFDGKEAEFKVTFEFHNGRLKRVEVDPEFQKQIDS | 1.56
43 | DDDKERKARKFAEIYMHGDWRKAHQYADPNVRIKVGDKTFQGRESLAKLVESLRKEQRLEMKRVEARVTNGRINLHLRFVVQKNGTPSHRRIHFDARMHNGKLKEMTENDKR | 0.115
44 | DDDKIRKDAETFVKILETGNQERAQRMFDENAHMRIGDKTYHGRESVHKAIKTIRDEVDHVQVRHIDIQGEEVIIQMRFDHNGNQDIMTINLVIKNGRIKSATYTRP | 0.537
45 | DDDKKAHKFFSEMLTAIQTGNEDQLRHLVDKDAHINVGDDVITGRENIVETWREKRERVDDLDAKVDSYHVHNGRIEIRAKESSTKNGKSDSRDFRIQARLTNGHVKLQKKEQN | -0.348
46 | DDDKKAKNWMERMLHIFREGDEDSYKNNFDENAEINIGDKTYHGRDRVQRLFSEIKHNVDHLKIQFQDFSTHNGRWVLIFEYSRTHNGHTEQNVIVVNMEQHNGKVVVKSMREK | 0.636
47 | DDDKQRKVEQVNRAWNEGDEETWKNNFDPNARVNVGEFNYEGMEEISKNIRDQKEQWRIEFKRMDLNMHGNKATAHFEATTNHNGNPDEFRKRLEAEFQGDRLKHMRVTEDR | -0.235
48 | DDDKRAEDWAKELIKVEQEGDEDQMERNADEDVRLKYGDTEIHGREQFREHVREQIERVDSVDVRIETFHMHNGRLDMVAEVEVQVDGRKHKDRFVFHAVDHNGRMLLKSASEG | 0.522
49 | DDDKRANQFFRDMLRVFKNNNEKEAEKLFPPDANQNVGEERVHGREQFRKEFVDDARNVDHWEARIVDLDVKNGRIVIRFEFVKDVNGRKNKDVRTLTVVNHNGRLVIERVNSG | 0.882
50 | DDDKRHLAQRFFEAMKRGDPRQALNNMDPNARVVIGDKVIRGRDKFHEHIDKLNKHQRVQYRDVKLHDQGDKITANVDVVRNENGRPHRNVYVAEFSARNGRLTEVEMREDK | -0.138
